For this assay, the target named is 柯萨奇病毒A16型病毒样颗粒 (Coxsackievirus A16) (UniProt Q65900). As to the kind of experiment: sandwich ELISA: rabbit anti-CV A16 VLP polyclonal serum (1:8000) as capture, CV A16 VLP titrated, mAb 10 ng/μL as detector; positive when OD450nm>0.15. A general note: An ELISA detects its analyte on a solid surface through an enzyme-linked reagent.
Chain of UniProt Q65900 (Q65900 2-862): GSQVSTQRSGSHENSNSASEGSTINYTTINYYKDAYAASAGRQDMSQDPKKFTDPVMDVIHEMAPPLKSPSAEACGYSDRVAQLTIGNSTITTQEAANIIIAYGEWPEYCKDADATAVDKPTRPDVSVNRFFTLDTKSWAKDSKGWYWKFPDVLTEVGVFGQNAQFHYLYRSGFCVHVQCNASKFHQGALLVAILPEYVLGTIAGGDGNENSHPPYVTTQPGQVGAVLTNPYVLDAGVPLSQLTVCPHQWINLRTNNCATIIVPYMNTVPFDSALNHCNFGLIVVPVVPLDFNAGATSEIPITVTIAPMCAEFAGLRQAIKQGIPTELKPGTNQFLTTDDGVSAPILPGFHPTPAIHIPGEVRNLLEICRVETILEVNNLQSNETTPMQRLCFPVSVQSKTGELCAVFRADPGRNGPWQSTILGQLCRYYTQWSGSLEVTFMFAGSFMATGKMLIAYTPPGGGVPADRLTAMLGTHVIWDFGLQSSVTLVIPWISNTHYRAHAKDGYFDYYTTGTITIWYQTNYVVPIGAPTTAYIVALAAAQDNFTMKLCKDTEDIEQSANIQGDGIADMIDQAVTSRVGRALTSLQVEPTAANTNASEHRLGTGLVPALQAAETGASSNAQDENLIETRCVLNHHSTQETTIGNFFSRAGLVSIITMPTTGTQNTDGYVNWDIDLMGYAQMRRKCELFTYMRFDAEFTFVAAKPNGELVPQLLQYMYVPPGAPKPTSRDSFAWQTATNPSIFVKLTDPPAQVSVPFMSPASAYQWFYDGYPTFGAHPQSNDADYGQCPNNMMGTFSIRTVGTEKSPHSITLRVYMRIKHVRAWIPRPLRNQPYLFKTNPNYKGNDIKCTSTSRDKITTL

B1: 单克隆抗体3H5 (antibody, mouse IgG1, kappa, V domains shown)
VH: EVKLEESGGGLVQPGGSMKLSCVGSGFTFSNYWMNWVRQSPDKGLEWVAEIRSKSNNYATHYAESVKGRLTISRDDSKSGVYLQMNNLRPEDTGIYYCTRSGAYWGQGTLVTVSA
VL: QIVLTQSPAIMSASPGEKVTMTCSASSSVSYIYWYQQKPGSSPRLLIYDTTRLASGVPVRFSGSGSGTSYSLTISRMEAEDAATYYCQHWNSYPFTFGSGTKLEIKR
Regarding B1, the 最低检出限度 came to 62.5 ng/mL.

The values above are taken from patent publication CN116284353A.
